Measured values as given in patent publication US6432702 (NEW YORK UNIVERSITY, dated 2002).

Columns and labels:
FGF receptor-2 (bek) = molecular target: T1, FGF receptor-2 (bek) (UniProt P21803 22-821, limits assumed); assay: competition with 125I-bFGF on CHO 3-7.5 cells expressing FGF receptor-2
T1 construct: whole, on cells; also called CHO 3-7.5 cells

FGF receptor-1 (flg) [1] = molecular target: T2, FGF receptor-1 (flg) (UniProt P16092 22-822, limits assumed); assay: Scatchard analysis, 125I-labeled ligand on CHO 4-1 cells expressing FGF receptor-1, 4 C
T2 construct: whole, on cells; also called flg receptor; CHO 4-1 cells
Method: Scatchard analysis of the binding of K-FGF and K-FGF-140 was performed on CHO 4-1 cells expressing the FGF receptor-1 as follows. Cells at 4.8×10^5/35mm dish were incubated at 4° C. with DMEM containing 0.15% gelatin, […].
In FIG. 7, Scatchard analysis of binding to high affinity receptors gave a straight line, indicating a single class of binding sites.

FGF receptor-1 (flg) [2] = molecular target: T2, FGF receptor-1 (flg); assay: competition with 125I-bFGF on CHO 4-1 cells expressing FGF receptor-1

T2 sequence (P16092 22-822 limits assumed): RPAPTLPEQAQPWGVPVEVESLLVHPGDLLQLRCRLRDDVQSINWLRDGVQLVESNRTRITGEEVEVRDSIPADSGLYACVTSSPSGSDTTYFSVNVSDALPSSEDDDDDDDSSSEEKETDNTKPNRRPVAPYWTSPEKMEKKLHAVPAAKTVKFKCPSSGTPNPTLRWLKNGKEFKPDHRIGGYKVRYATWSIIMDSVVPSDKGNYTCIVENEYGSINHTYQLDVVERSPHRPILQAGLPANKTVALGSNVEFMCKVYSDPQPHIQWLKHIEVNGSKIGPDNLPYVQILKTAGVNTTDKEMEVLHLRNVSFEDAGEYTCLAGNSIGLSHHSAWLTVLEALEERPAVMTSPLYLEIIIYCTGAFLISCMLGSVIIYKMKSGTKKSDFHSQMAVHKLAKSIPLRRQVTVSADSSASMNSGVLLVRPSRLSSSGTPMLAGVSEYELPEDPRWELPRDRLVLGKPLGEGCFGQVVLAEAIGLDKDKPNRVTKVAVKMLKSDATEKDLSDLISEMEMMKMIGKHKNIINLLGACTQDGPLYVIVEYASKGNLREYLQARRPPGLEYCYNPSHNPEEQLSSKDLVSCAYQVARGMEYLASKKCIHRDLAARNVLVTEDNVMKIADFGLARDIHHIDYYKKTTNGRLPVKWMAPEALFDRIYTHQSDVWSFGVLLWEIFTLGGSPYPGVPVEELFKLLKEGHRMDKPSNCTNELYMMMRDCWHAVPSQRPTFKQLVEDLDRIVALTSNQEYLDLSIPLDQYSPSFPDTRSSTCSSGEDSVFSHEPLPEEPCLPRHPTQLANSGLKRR
T1 sequence (P21803 22-821 limits assumed): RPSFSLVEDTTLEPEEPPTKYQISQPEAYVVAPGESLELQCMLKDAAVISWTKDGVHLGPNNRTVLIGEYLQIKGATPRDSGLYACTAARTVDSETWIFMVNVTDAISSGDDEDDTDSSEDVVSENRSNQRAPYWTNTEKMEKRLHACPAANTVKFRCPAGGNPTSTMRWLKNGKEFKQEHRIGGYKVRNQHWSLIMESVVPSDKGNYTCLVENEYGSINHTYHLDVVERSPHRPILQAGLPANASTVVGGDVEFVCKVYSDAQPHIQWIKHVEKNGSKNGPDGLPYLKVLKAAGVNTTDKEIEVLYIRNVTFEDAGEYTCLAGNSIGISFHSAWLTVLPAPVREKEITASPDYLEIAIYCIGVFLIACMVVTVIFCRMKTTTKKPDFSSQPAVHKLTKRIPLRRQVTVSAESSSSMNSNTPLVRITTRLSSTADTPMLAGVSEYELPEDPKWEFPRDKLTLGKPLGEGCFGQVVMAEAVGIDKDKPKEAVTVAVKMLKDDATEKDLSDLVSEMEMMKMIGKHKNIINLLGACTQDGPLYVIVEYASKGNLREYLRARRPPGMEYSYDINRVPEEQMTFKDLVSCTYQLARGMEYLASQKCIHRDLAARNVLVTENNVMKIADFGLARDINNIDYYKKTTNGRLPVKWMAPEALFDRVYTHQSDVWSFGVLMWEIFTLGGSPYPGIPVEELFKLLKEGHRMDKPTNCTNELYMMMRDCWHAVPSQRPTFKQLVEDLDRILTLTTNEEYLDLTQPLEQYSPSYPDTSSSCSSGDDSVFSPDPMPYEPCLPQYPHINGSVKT

fold higher affinity than bFGF or full-length K-FGF (FGF receptor-2 (bek)) [fold] | Kd (FGF receptor-1 (flg) [1]) [nM] | fold higher affinity than full-length K-FGF (FGF receptor-1 (flg) [1]) [fold] | fold more competitor needed than bFGF or K-FGF-140 (FGF receptor-1 (flg) [2]) [fold] | Binder
~3 | ~0.095 | ~3 | – | K-FGF-140 (truncated K-FGF) (ligand, Unglycosylated, 140 residues, about 14,000 Daltons; also called truncated mammalian growth factor; truncated protein) AAVQSGAGDYLLGIKRLRRLYCNVGIGFHLQALPDGRIGGAHADTRDSLLELSPVERGVVSIFGVASRFFVAMSSKGKLYGSPFFTDECTFKEILLPNNYNAYESYKYPGMFIALSKNGKTKKGNRVSPTMKVTHFLPRL
– | ~0.285 | – | ~8 | K-FGF (full-length mature human growth factor) (ligand, also called full-length K-FGF; FGF-4) APTAPNGTLEAELERRWESLVALSLARLPVAAQPKEAAVQSGAGDYLLGIKRLRRLYCNVGIGFHLQALPDGRIGGAHADTRDSLLELSPVERGVVSIFGVASRFFVAMSSKGKLYGSPFFTDECTFKEILLPNNYNAYESYKYPGMFIALSKNGKTKKGNRVSPTMKVTHFLPRL
